According to ChEMBL document CHEMBL1153925, “Synthesis, characterization and biological activity of ring-substituted 6-benzylamino-9-tetrahydropyran-2-yl and 9-tetrahydrofuran-2-ylpurine derivatives” (Bioorg Med Chem, 2009):

Legend:
Settings in all cases: Zea mays
[1] = substrate: Oc1cccc(CNc2ncnc3nc[nH]c23)c1
[2] = substrate: c1ccc(CNc2ncnc3c2ncn3C2CCCCO2)cc1
[3] = substrate: Oc1ccc(CNc2ncnc3c2ncn3C2CCCCO2)cc1
[4] = substrate: COc1ccc(CN)cc1
[5] = substrate: O[C@@H]1[C@H](O)[C@H](O)CO[C@H]1n1cnc2c(NCc3ccccc3)ncnc21
[6] = substrate: COc1ccc(CNc2ncnc3c2ncn3C2CCCCO2)cc1
[7] = substrate: CC(C)=CCNc1ncnc2[nH]cnc12
[8] = substrate: COc1cccc(CN)c1
[9] = substrate: COc1cccc(CNc2ncnc3c2ncn3C2CCCCO2)c1
[10] = substrate: c1ccc(CNc2ncnc3[nH]cnc23)cc1
[11] = substrate: NCc1ccc(O)cc1
[12] = substrate: Oc1cccc(CNc2ncnc3c2ncn3C2CCCCO2)c1
[13] = substrate: Oc1cccc(CNc2ncnc3nc[nH]c23)c1; remark: listed apart in the source
[14] = substrate: c1ccc(CNc2ncnc3c2ncn3C2CCCCO2)cc1; remark: listed apart in the source
[15] = substrate: Oc1ccc(CNc2ncnc3c2ncn3C2CCCCO2)cc1; remark: listed apart in the source
[16] = substrate: CC(C)=CCNc1ncnc2[nH]cnc12; remark: listed apart in the source
[17] = substrate: c1ccc(CNc2ncnc3[nH]cnc23)cc1; remark: listed apart in the source
[18] = target: 6-(4-hydroxybenzylamino)purine
[19] = substrate: Oc1cccc(CNc2ncnc3c2ncn3C2CCCCO2)c1; remark: listed apart in the source
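Wherever Km is given: zea mays CKX1 produced in Pichia pastoris, enzyme activity followed as aldehyde formation detected with the 4-aminophenol method.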

B1: Cytokinin dehydrogenase 1 (Zea mays), Q9T0N8 (protein)
chain: MAVVYYLLLAGLIACSHALAAGTPALGDDRGRPWPASLAALALDGKLRTDSNATAAASTDFGNITSALPAAVLYPSSTGDLVALLSAANSTPGWPYTIAFRGRGHSLMGQAFAPGGVVVNMASLGDAAAPPRINVSADGRYVDAGGEQVWIDVLRASLARGVAPRSWNDYLYLTVGGTLSNAGISGQAFRHGPQISNVLEMDVITGHGEMVTCSKQLNADLFDAVLGGLGQFGVITRARIAVEPAPARARWVRFVYTDFAAFSADQERLTAPRPGGGGASFGPMSYVEGSVFVNQSLATDLANTGFFTDADVARIVALAGERNATTVYSIEATLNYDNATAAAAAVDQELASVLGTLSYVEGFAFQRDVAYAAFLDRVHGEEVALNKLGLWRVPHPWLNMFVPRSRIADFDRGVFKGILQGTDIVGPLIVYPLNKSMWDDGMSAATPSEDVFYAVSLLFSSVAPNDLARLQEQNRRILRFCDLAGIQYKTYLARHTDRSDWVRHFGAAKWNRFVEMKNKYDPKRLLSPGQDIFN
Km [1]: 24.4 µM | kcat [1]: 0.244 s⁻¹ | Km [2]: 98.9 µM | kcat [2]: 0.069 s⁻¹ | Km [3]: 33.8 µM | kcat [3]: 0.195 s⁻¹ | kcat [4]: 0.476 s⁻¹ | kcat [5]: 0.218 s⁻¹ | kcat [6]: 0.256 s⁻¹ | Km [7]: 1.8 µM | kcat [7]: 0.208 s⁻¹ | kcat [8]: 0.145 s⁻¹ | kcat [9]: 0.006 s⁻¹ | Km [10]: 29.6 µM | kcat [10]: 0.225 s⁻¹ | Km [11]: 5.5 µM | kcat [11]: 0.871 s⁻¹ | Km [12]: 125 µM | kcat [12]: 0.032 s⁻¹ | kcat/Km [13]: 0.01 | kcat/Km [14]: 0.0007 | kcat/Km [15]: 5800 M⁻¹ s⁻¹ | kcat/Km [16]: 0.116 | kcat/Km [17]: 0.0076 | kcat/Km [18]: 0.158 | kcat/Km [19]: 0.0003
